B1: CPEB3 Ribozyme (parent)
chain: GGGGGCCACAGCAGAAGCGUUCACGUCGCGGCCCCUGUCAGAUUCUGGUGAAUCUGCGAAUUCUGCUGU

Variants of: B1
Assay: self-cleavage, relative activity (ratio to wild type); higher = more cleavage; co-transcriptional
Work on GGGGGCCACAGCAGAAGCGUUCACGUUGCGGCCCCUGUCAGAUUGUGGUGAAUCUGCGAAUUCUGCUGU yielded a self-cleavage of 0.243.
In the case of GGGGGCCACAGCAGAAGCGUUCACGUUGCGGCCCCUGUCAGAUUCUGGUGAAUCUGCAAAUUCUGCUGU, the self-cleavage is reported as 0.237.
For GGGGGCCACAGCAGAAGCGUUCACGUUGCGGCCCCUGUCAGAUUCUGGUGAAUCUGCCAAUUCUGCUGU, the self-cleavage was 0.351.
Work on GGGGGCCACAGCAGAAGCGUUCACGUUGCGGCCCCUGUCAGAUUCUGGUGAAUCUGCUAAUUCUGCUGU yielded a self-cleavage of 0.526.
With GGGGGCCACAGCAGAAGCGUUCACGUUGCGGCCCCUCUCAGAUUCUGGUGAAUCUGCGAAUUCUGCUGU the self-cleavage was 0.147.
Variant GGGGGCCACAGCAGAAGCGUUCACGUUGCGGCCCCUUUCAGAUUCUGGUGAAUCUGCGAAUUCUGCUGU has a self-cleavage of 0.0803.
Work on GGGGGCCACAGCAGAAGCGUUCACGUUGCGGCCCCUGUGAGAUUCUGGUGAAUCUGCGAAUUCUGCUGU yielded a self-cleavage of 0.164.
In the case of GGGGGCCACAGCAGAAGCGUUCACGUUGCGGCCCCUGUAAGAUUCUGGUGAAUCUGCGAAUUCUGCUGU, the self-cleavage is reported as 0.186.
GGGGGCCACAGCAGAAGCGUUCACGUUGCGGCCCCUGUCAGAUUCUCGUGAAUCUGCGAAUUCUGCUGU gave a self-cleavage of 0.436.
Work on GGGGGCCACAGCAGAAGCGUUCACGUUGCGGCCCCUGUCAGAUUCUUGUGAAUCUGCGAAUUCUGCUGU yielded a self-cleavage of 0.431.
GGGGGCCACAGCAGAAGCGUUCACGUUGCGGCCCCUGUCUGAUUCUGGUGAAUCUGCGAAUUCUGCUGU gave a self-cleavage of 0.207.
With GGGGGCCACAGCAGAAGCGUUCACGUUGCGGCCCCUGUCGGAUUCUGGUGAAUCUGCGAAUUCUGCUGU the self-cleavage was 0.192.
Work on GGGGGCCACAGCAGAAGCGUUCACGUUGCGGCCCCUGUCAGAUUCUGGUGAAUCUGCGAGUUCUGCUGU yielded a self-cleavage of 0.254.
GGGGGCCACAGCAGAAGCGUUCACGUUGCGGCCCCUGUCAGAUUCUGGUGAAUCUGCGACUUCUGCUGU gave a self-cleavage of 0.192.
Variant GGGGGCCACAGCAGAAGCGUUCACGUUGCGGCCCCUGUCAGAUUCUGGUGAAUUUGCGAAUUCUGCUGU has a self-cleavage of 0.328.
GGGGGCCACAGCAGAAGCGUUCACGUUGCGGCCCCUGUCAGAUUCUGGUGAAUAUGCGAAUUCUGCUGU showed a self-cleavage of 0.18.
GGGGGCCACAGCAGAAGCGUUCACGUUGCGGCCCCUGUCAGAUUCUGGUGAAUGUGCGAAUUCUGCUGU gave a self-cleavage of 0.195.
Work on GGGGGCCACAGCAGAAGCGUUCACGUUGCGGCCCCUGUCAGAUUCUGGUGAAUCUACGAAUUCUGCUGU yielded a self-cleavage of 0.308.
With GGGGGCCACAGCAGAAGCGUUCACGUUGCGGCCCCUGUCAGAUUCUGGUGAAUCUCCGAAUUCUGCUGU the self-cleavage was 0.194.
GGGGGCCACAGCAGAAGCGUUCACGUUGCGGCCCCUGUCAGAUUCUGGUAAAUCUGCGAAUUCUGCUGU gave a self-cleavage of 0.371.
With GGGGGCCACAGCAGAAGCGUUCACGUUGCGGCCCCUGUCAGAUUCUGGUUAAUCUGCGAAUUCUGCUGU the self-cleavage was 0.396.
Variant GGGGGCCACAGCAGAAGCGUUCACGUUGCGGCACCUGUCAGAUUCUGGUGAAUCUGCGAAUUCUGCUGU has a self-cleavage of 0.271.
In the case of GGGGGCCACAGCAGAAGCGUUCACGUUGCGGCGCCUGUCAGAUUCUGGUGAAUCUGCGAAUUCUGCUGU, the self-cleavage is reported as 0.206.
With GGGGGCCACAGCAGAAGCGUUCACGUUGCGGCUCCUGUCAGAUUCUGGUGAAUCUGCGAAUUCUGCUGU the self-cleavage was 0.345.
GGGGGCCACAGCAGAAGCGUUCACGUUGCGGCCCCUGUCAGAUUCUGGUGAAUCUGAGAAUUCUGCUGU showed a self-cleavage of 0.242.
With GGGGGCCACAGCAGAAGCGUUCACGUUGCGGCCCCUGUCAGAUUCUGGUGAAUCUGGGAAUUCUGCUGU the self-cleavage was 0.166.
GGGGGCCACAGCAGAAGCGUUCACGUUGCGGCCCCUGUCAGAUUCUGGUGAAUCUGCGAAUUCUGCUAU showed a self-cleavage of 0.614.
In the case of GGGGGCCACAGCAGAAGCGUUCACGUUGCGGCCCCUGUCAGAUUCUGGUGAAUCUGCGAAUUCUGCUUU, the self-cleavage is reported as 0.432.
In the case of GGGGGCCACAGCAGAAGCGUUCACGUGGCGGCCCCUGUCAGAUUCUGGUGAAUCUGCGAAUUCUGCAGU, the self-cleavage is reported as 0.166.
Variant GGGGGCCACAGCAGAAGCGUUCACGUGGCGGCCCCUGUCAGAUUCUGGUGAAUCUGCGAAUUCUGCCGU has a self-cleavage of 0.247.
For GGGGGCCACAGCAGAAGCGUUCACGUGGCGGCCCCUGUCAGAUUCUGGUGAAUCUGCGAAUUCUGCGGU, the self-cleavage was 0.255.
Work on GGGGGCCACAGCAGAAGCGUUCACGUUGCGGCCCCUGUCAGCUUCUGGUGAAUCUGCGAAUUCUGCUGU yielded a self-cleavage of 0.27.
Variant GGGGGCCACAGCAGAAGCGUUCACGUUGCGGCCCCUGUCAGGUUCUGGUGAAUCUGCGAAUUCUGCUGU has a self-cleavage of 0.174.
Work on GGGGGCCACAGCAGAAGCGUUCACGUUGCGGCCCCUGUCAGAUUCUGGUGAAUCUGCGAAUUCUCCUGU yielded a self-cleavage of 0.196.
In the case of GGGGGCCACAGCAGAAGCGUUCACGUUGCGGCCCCUGUCAGAUUCUGGUGAAUCUGCGAAUUCUUCUGU, the self-cleavage is reported as 0.148.
Variant GGGGGCCACAGCAGAAGCGUUCACGUUGCGGCCCCUGUCAGAUUCUGGUGAAUCUGCGAAUUCUACUGU has a self-cleavage of 0.172.
In the case of GGGGGCCACAGCAGAAGCGUUCACGUGGCGGCCCCUGUCAGAUUCUGGUGAAUCUGCGAAUUCAGCUGU, the self-cleavage is reported as 0.215.
In the case of GGGGGCCACAGCAGAAGCGUUCACGUGGCGGCCCCUGUCAGAUUCUGGUGAAUCUGCGAAUUCGGCUGU, the self-cleavage is reported as 0.25.
GGGGGCCACAGCAGAAGCGUUCACGUUGCGGCCCCUGUCAGAAUCUGGUGAAUCUGCGAAUUCUGCUGU showed a self-cleavage of 0.188.
Work on GGGGGCCACAGCAGAAGCGUUCACGUUGCGGCCCCUGUCAGAGUCUGGUGAAUCUGCGAAUUCUGCUGU yielded a self-cleavage of 0.14.
In the case of GGGGGCCACAGCAGAAGCGUUCACGUUGCGGCCCCUGUCAGAUACUGGUGAAUCUGCGAAUUCUGCUGU, the self-cleavage is reported as 0.292.
Work on GGGGGCCACAGCAGAAGCGUUCACGUUGCGGCCCCUGUCAGAUCCUGGUGAAUCUGCGAAUUCUGCUGU yielded a self-cleavage of 0.15.
GGGGGCCACAGCAGAAGCGUUCACGUGGCGGCCCCUGUCAGAUUCUGGUGAAUCUGCGAAUGCUGCUGU gave a self-cleavage of 0.241.
Work on GGGGGCCACAGCAGAAGCGUUCACGUUGCGGCCCCUGUCAGAUUCUGGUGAAUCUGCGAAUUUUGCUGU yielded a self-cleavage of 0.17.
For GGGGGCCACAGCAGAAGCGUUCACGUUGCGGCCACUGUCAGAUUCUGGUGAAUCUGCGAAUUCUGCUGU, the self-cleavage was 0.201.
For GGGGGCCACAGCAGAAGCGUUCACGUUGCGGCCUCUGUCAGAUUCUGGUGAAUCUGCGAAUUCUGCUGU, the self-cleavage was 0.415.
GGGGGCCACAGCAGAAGCGUUCACGUUGCGGCCCCUGUCAGAUUCUGCUGAAUCUGCGAAUUCUGCUGU gave a self-cleavage of 0.397.
Work on GGGGGCCACAGCAGAAGCGUUCACGUUUCGGCCCCUGUCAGAUUCUGGUGAAUCUGCGAAUUCUGCUGU yielded a self-cleavage of 0.187.
For GGGGGCCACAGCAGAAGCGUUCACGUUCCGGCCCCUGUCAGAUUCUGGUGAAUCUGCGAAUUCUGCUGU, the self-cleavage was 0.218.
GGGGGCCACAGCAGAAGCGUUCACGUUGCGGCCCCUGUCAUAUUCUGGUGAAUCUGCGAAUUCUGCUGU showed a self-cleavage of 0.186.
GGGGGCCACAGCAGAAGCGUUCACGUUGCGGCCCCUGUCACAUUCUGGUGAAUCUGCGAAUUCUGCUGU gave a self-cleavage of 0.195.
In the case of GGGGGCCACAGCAGAAGCGUUCACGUUGCGGCCCCUGUCAGAUUCUGGUGAGUCUGCGAAUUCUGCUGU, the self-cleavage is reported as 0.415.
In the case of GGGGGCCACAGCAGAAGCGUUCACGUUGCGGCCCCUGUCAGAUUCUGGUGACUCUGCGAAUUCUGCUGU, the self-cleavage is reported as 0.302.
With GGGGGCCACAGCAGAAGCGUUCACGUUGCGGCCCCUGUCAGAUUCUGGUGAUUCUGCGAAUUCUGCUGU the self-cleavage was 0.291.
With GGGGGCCACAGCAGAAGCGUUCACGUUGCGGCCCCUGCCAGAUUCUGGUGAAUCUGCGAAUUCUGCUGU the self-cleavage was 0.268.
GGGGGCCACAGCAGAAGCGUUCACGUUGCGGCCCCUGACAGAUUCUGGUGAAUCUGCGAAUUCUGCUGU showed a self-cleavage of 0.281.
GGGGGCCACAGCAGAAGCGUUCACGUUGCUGCCCCUGUCAGAUUCUGGUGAAUCUGCGAAUUCUGCUGU gave a self-cleavage of 0.181.
GGGGGCCACAGCAGAAGCGUUCACGUUGCAGCCCCUGUCAGAUUCUGGUGAAUCUGCGAAUUCUGCUGU gave a self-cleavage of 0.224.
GGGGGCCACAGCAGAAGCGUUCACGUUGCCGCCCCUGUCAGAUUCUGGUGAAUCUGCGAAUUCUGCUGU gave a self-cleavage of 0.164.
In the case of GGGGGCCACAGCAGAAGCGUUCACGUUGCGGCCCCUGUCAGAUUCUGGUGAAUCUGCGAAUUCUGGUGU, the self-cleavage is reported as 0.262.
GGGGGCCACAGCAGAAGCGUUCACGUUGCGGCCCCUGUCAGAUUCUGGUGAAUCUGCGAAUUCUGUUGU showed a self-cleavage of 0.203.
GGGGGCCACAGCAGAAGCGUUCACGUUGCGGCCCCUGUCAGAUUCUGGUGAAUCUGCGAAUUCUGAUGU gave a self-cleavage of 0.179.
GGGGGCCACAGCAGAAGCGUUCACGUUGAGGCCCCUGUCAGAUUCUGGUGAAUCUGCGAAUUCUGCUGU showed a self-cleavage of 0.192.
Work on GGGGGCCACAGCAGAAGCGUUCACGUUGCGGCCCCUGUCAGAUUCUGGUGAAUCUGCGAAUUCUGCUGU yielded a self-cleavage of 0.417.
With GGGGGCCACAGCAGAAGCGUUCACGUUGCGGCCCCUGUCAGAUUCUGGUGCAUCUGCGAAUUCUGCUGU the self-cleavage was 0.259.
GGGGGCCACAGCAGAAGCGUUCACGUUGCGGCCCCUGUCAGAUUCUGGUGGAUCUGCGAAUUCUGCUGU gave a self-cleavage of 0.376.
GGGGGCCACAGCAGAAGCGUUCACGUUGCGGCCCCUGUCAGAUUCUGGUGUAUCUGCGAAUUCUGCUGU showed a self-cleavage of 0.303.
For GGGGGCCACAGCAGAAGCGUUCACGUUGCGGCCCCAGUCAGAUUCUGGUGAAUCUGCGAAUUCUGCUGU, the self-cleavage was 0.167.
Work on GGGGGCCACAGCAGAAGCGUUCACGUUGCGGCCCCGGUCAGAUUCUGGUGAAUCUGCGAAUUCUGCUGU yielded a self-cleavage of 0.188.
Work on GGGGGCCACAGCAGAAGCGUUCACGUGGCGGCCCCUGUCAGAUUCUGGUGAAUCUGCGAAUUCUGCUGC yielded a self-cleavage of 0.374.
With GGGGGCCACAGCAGAAGCGUUCACGUGGCGGCCCCUGUCAGAUUCUGGUGAAUCUGCGAAUUCUGCUGA the self-cleavage was 0.267.
With GGGGGCCACAGCAGAAGCGUUCACGUUGCGACCCCUGUCAGAUUCUGGUGAAUCUGCGAAUUCUGCUGU the self-cleavage was 0.266.
In the case of GGGGGCCACAGCAGAAGCGUUCACGUUGCGUCCCCUGUCAGAUUCUGGUGAAUCUGCGAAUUCUGCUGU, the self-cleavage is reported as 0.192.
With GGGGGCCACAGCAGAAGCGUUCACGUUGCGGCCCAUGUCAGAUUCUGGUGAAUCUGCGAAUUCUGCUGU the self-cleavage was 0.158.
Variant GGGGGCCACAGCAGAAGCGUUCACGUUGCGGCCCUUGUCAGAUUCUGGUGAAUCUGCGAAUUCUGCUGU has a self-cleavage of 0.318.
In the case of GGGGGCCACAGCAGAAGCGUUCACGUUGCGGGCCCUGUCAGAUUCUGGUGAAUCUGCGAAUUCUGCUGU, the self-cleavage is reported as 0.186.
In the case of GGGGGCCACAGCAGAAGCGUUCACGUUGCGGACCCUGUCAGAUUCUGGUGAAUCUGCGAAUUCUGCUGU, the self-cleavage is reported as 0.227.
GGGGGCCACAGCAGAAGCGUUCACGUUGCGGUCCCUGUCAGAUUCUGGUGAAUCUGCGAAUUCUGCUGU gave a self-cleavage of 0.403.

Reference: the RNAGym collection of RNA variant scans (doi:10.7554/elife.80360)
